Measured values from publication PMC13083842.

Biological target: interleukin-6 (IL-6) (human) (UniProt P05231)
Assay: SPR; IL-6 amine-coupled on a CM5 chip (Biacore T200); analytes in multi-cycle kinetics, 0.39 to 100 nM, 30 µL/min, 180 s association, 1200 s dissociation, HBS-N + 10 mM CaCl2; global fit, 1:1 model; where koff was below the detection limit KD was estimated from kon and the theoretical maximum koff

Sequence of interleukin-6 (IL-6) (human) (P05231 30-212): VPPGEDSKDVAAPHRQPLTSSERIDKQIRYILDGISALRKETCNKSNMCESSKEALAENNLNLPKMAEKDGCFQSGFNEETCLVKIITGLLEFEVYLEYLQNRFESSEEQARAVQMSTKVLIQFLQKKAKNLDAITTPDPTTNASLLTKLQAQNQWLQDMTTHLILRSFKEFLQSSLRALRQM

Kd | koff | kon | Substance
428 nM |  |  | sIL-6R-TGN 1:5 (from UniProt P08887 20-355) (receptor)
131 nM | 0.035 s⁻¹ | 248000 M⁻¹ s⁻¹ | soluble IL-6 receptor (sIL-6R) (from UniProt P08887 20-355)
